Reference: paper PMC6413200

Target: pGE-LysRS-6xhis-SPARC fusion protein (not stated | Clonorchis sinensis)
Test: SEC; Ni-affinity fractions on a Superdex 200 Increase 10/300 GL or a Superose 6 Increase 10/300 column; 50 mM Tris-Cl (pH 7.5), 300 mM NaCl; 0.3 mL/min; molecular weight estimated from elution; samples from sonication and from mild lysis

Q: Which stoichiometry N does the source give for pGE-LysRS-6xhis-SPARC fusion protein here?
A: The stoichiometry N was 2.
